Measurements: publication PMC4477602 (Journal of Biological Engineering, 2015)

Target: T1, Wild type Clone A, soluble, C-terminal His6
T1 chain: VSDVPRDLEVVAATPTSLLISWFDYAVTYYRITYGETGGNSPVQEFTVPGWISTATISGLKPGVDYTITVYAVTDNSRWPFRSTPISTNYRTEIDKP
Assay: SEC; Superdex 75 10/300 GL, PBS pH 7.4, samples after Co2+ affinity resin; self-association (monomer, dimer, high MW oligomer in the void volume)
Conditions: both partners purified

B1: Wild type Clone A, soluble, C-terminal His6 (designed binder)
chain: T1 chain
modifications: Glu47 (printed 45) taken from the text's description of wild type CA; Fig. S2 prints Asp / Glu47 (printed 45) taken from the text's description of wild type CA; Fig. S2 prints Asp
stoichiometry N: 2
